In the Immune Epitope Database (IEDB):

Experiments:
Assay in all cases: IEDB peptide-MHC binding, purified MHC/competitive/fluorescence; filed as Kd, often an IC50 or EC50 that approximates it; ≥ and ≤ were set here for values at or beyond the usual limits of such assays
Conditions in all cases: source organism: Rickettsia akari str. Hartford
HLA-B*51:01 = target: HLA-B*51:01
HLA-B*44:02 = target: HLA-B*44:02
HLA-A*69:01 = target: HLA-A*69:01
HLA-B*58:01 = target: HLA-B*58:01
HLA-B*14:02 = target: HLA-B*14:02
HLA-B*27:05 = target: HLA-B*27:05
HLA-A*24:03 = target: HLA-A*24:03
HLA-B*08:01 = target: HLA-B*08:01
HLA-B*18:01 = target: HLA-B*18:01
HLA-B*15:17 = target: HLA-B*15:17

Measured: Kd

FTARIIIFS
≥ 20 µM: HLA-B*51:01 | HLA-A*69:01 | HLA-A*24:03 | HLA-B*18:01 | HLA-B*15:17
≥ 5 µM: all other assays above
